This assay has as its target origin recognition complex (ORC) (S. cerevisiae) (UniProt P54784). As to the kind of experiment: cross-linking.

As to “MCM2–7 (mini-chromosome maintenance proteins 2–7) with a single HA tag at the N-terminus of Mcm3, P29469;P24279;P30665;P29496;P53091;P38132”, the stoichiometry N (MCM2–7 hexamer per ORC) stood at 1.

Source of the values: article PMC3597701.
